For assay [1], the target named is p66^S3C/C38V/C280S labeled with A488 (HIV-1). The assay is described as follows: FRET or BRET.
Assay [2] deals with HIV-1 reverse transcriptase p51 p51 (Human immunodeficiency virus 1) (UniProt O93215). The following applies: cited from earlier work.
In assay [3] the target is HIV-1 reverse transcriptase p66 p66 (Human immunodeficiency virus 1) (UniProt O93215). As to conditions: cited from earlier work.
Assay [4] addresses p66^S3C/C38V/C280S labeled with QSY9 (HIV-1). The assay is described as follows: FRET or BRET.
For assay [5], the target named is HIV-1 reverse transcriptase p66 subunit (wild type) (HIV-1) (UniProt P03366). The assay is described as follows: intrinsic tryptophan fluorescence kinetics.
Assay [6] has the same target. The assay is described as follows: pre-steady-state activity assay.

“And” between values parts separate entries of the source, which are not always exact repeats. Equal values may be shown once.

In assay [1], “p51^S3C/C38V/C280S labeled with QSY9 (natural protein)” displayed a kobs (0.5 µM p66-A488, 0.5 µM p51-QSY9) of 4.1e-06 s⁻¹; a kobs (0.5 µM p66-A488, 1.5 µM p51-QSY9) of 4.8e-06 s⁻¹; a kobs (0.5 µM p66-A488, 2.0 µM p51-QSY9) of 5.7e-06 s⁻¹; a kobs (0.5 µM p66-A488, 2.5 µM p51-QSY9) of 7.1e-06 s⁻¹. In addition, in assay [1], the koff came to 2.5e-06 s⁻¹; the kon is 1.6 M⁻¹ s⁻¹ and 1.8 M⁻¹ s⁻¹.
For “HIV-1 reverse transcriptase p66 p66 (from UniProt O93215)”, the Kd in assay [2] was 0.31 µM; in assay [3] it was 4.2 µM.
As for “p51^S3C/C38V/C280S labeled with A488 (natural protein)”, in assay [4], the kobs (0.5 µM p66-QSY9, 0.5 µM p51-A488) is 3.4e-06 s⁻¹ and the off-rate constant (koff) came out at 1.9e-06 s⁻¹.
Turning to “HIV-1 reverse transcriptase p51 subunit (wild type) (from UniProt P03366 600-1039) (natural protein)”, in assay [5], the kdiss(1), slower major component of the two-exponential fit turned out to be 3.6e-06 s⁻¹; the kdiss(2), faster minor component of the two-exponential fit came to 7.6e-05 s⁻¹; the kobs (0.5 µM p66, 0.5 µM p51) is 5.4e-06 s⁻¹. In assay [6], this substance displayed a kobs (0.5 µM p66, 0.5 µM p51) of 5.8e-06 s⁻¹ and a kobs (0.5 µM p66, 2.5 µM p51) of 7.8e-06 s⁻¹.
